The labels stand for the following.
B1: BSL2, BRI1 suppressor 1 (BSU1)-like 2 (protein, UniProt Q9SJF0 1-1018, looked up)
Serine/threonine-protein phosphatase BSL2: MDEDSSMVADNDQDREFQSLDGGQSPSPMERETPQQMNDQSPPPEGGSVPTPPPSDPNPATSQQQAAAVVGQEQQPALVVGPRCAPTYSVVDAMMDKKEDGPGPRCGHTLTAVPAVGDEGTPGYIGPRLVLFGGATALEGNSGGTGTPTSAGSAGIRLAGATADVHCYDVLSNKWTRLTPFGEPPTPRAAHVATAVGTMVVIQGGIGPAGLSAEDLHVLDLTQQRPRWHRVVVQGPGPGPRYGHVMALVGQRYLMAIGGNDGKRPLADVWALDTAAKPYEWRKLEPEGEGPPPCMYATASARSDGLLLLCGGRDANSVPLASAYGLAKHRDGRWEWAIAPGVSPSSRYQHAAVFVNARLHVSGGALGGGRMVEDSSSVAVLDTAAGVWCDTKSVVTSPRTGRYSADAAGGDASVELTRRCRHAAAAVGDLIFIYGGLRGGVLLDDLLVAEDLAAAETTYAASHAAAAAATNSPPGRLPGRYGFSDERNRELSESAADGAVVLGSPVAPPVNGDMHTDISPENALLPGTRRTNKGVEYLVEASAAEAEAISATLAAAKARQVNGEVELPDRDCGAEATPSGKPTFSLIKPDSMGSMSVTPAGIRLHHRAVVVAAETGGALGGMVRQLSIDQFENEGRRVSYGTPESATAARKLLDRQMSINSVPKKVIAHLLKPRGWKPPVRRQFFLDCNEIADLCDSAERIFASEPTVLQLKAPIKIFGDLHGQFGDLMRLFDEYGSPSTAGDISYIDYLFLGDYVDRGQHSLETISLLLALKVEYQHNVHLIRGNHEAADINALFGFRIECIERMGERDGIWVWHRINRLFNWLPLAASIEKKIICMHGGIGRSINHVEQIENIQRPITMEAGSIVLMDLLWSDPTENDSVEGLRPNARGPGLVTFGPDRVMEFCNNNDLQLIVRAHECVMDGFERFAQGHLITLFSATNYCGTANNAGAILVLGRDLVVVPKLIHPLPPALSSPETSPERHIEDTWMQELNANRPATPTRGRPQNSNDRGGSLAWM
B2: UGT73B2, UDP-glucosyltransferase 73B2 (protein, UniProt Q94C57 1-483, looked up)
UDP-glucosyl transferase 73B2: MGSDHHHRKLHVMFFPFMAYGHMIPTLDMAKLFSSRGAKSTILTTSLNSKILQKPIDTFKNLNPGLEIDIQIFNFPCVELGLPEGCENVDFFTSNNNDDKNEMIVKFFFSTRFFKDQLEKLLGTTRPDCLIADMFFPWATEAAGKFNVPRLVFHGTGYFSLCAGYCIGVHKPQKRVASSSEPFVIPELPGNIVITEEQIIDGDGESDMGKFMTEVRESEVKSSGVVLNSFYELEHDYADFYKSCVQKRAWHIGPLSVYNRGFEEKAERGKKANIDEAECLKWLDSKKPNSVIYVSFGSVAFFKNEQLFEIAAGLEASGTSFIWVVRKTKDDREEWLPEGFEERVKGKGMIIRGWAPQVLILDHQATGGFVTHCGWNSLLEGVAAGLPMVTWPVGAEQFYNEKLVTQVLRTGVSVGASKHMKVMMGDFISREKVDKAVREVLAGEAAEERRRRAKKLAAMAKAAVEEGGSSFNDLNSFMEEFSS
B3: ATMEK4, ATMKK4, MKK4, mitogen-activated protein kinase kinase 4 (protein, UniProt O80397 1-366, looked up)
Mitogen-activated protein kinase kinase 4: MRPIQSPPGVSVPVKSRPRRRPDLTLPLPQRDVSLAVPLPLPPTSGGSGGSSGSAPSSGGSASSTNTNSSIEAKNYSDLVRGNRIGSGAGGTVYKVIHRPSSRLYALKVIYGNHEETVRRQICREIEILRDVNHPNVVKCHEMFDQNGEIQVLLEFMDKGSLEGAHVWKEQQLADLSRQILSGLAYLHSRHIVHRDIKPSNLLINSAKNVKIADFGVSRILAQTMDPCNSSVGTIAYMSPERINTDLNQGKYDGYAGDIWSLGVSILEFYLGRFPFPVSRQGDWASLMCAICMSQPPEAPATASPEFRHFISCCLQREPGKRRSAMQLLQHPFILRASPSQNRSPQNLHQLLPPPRPLSSSSSPTT
B4: DMR6, 2-oxoglutarate (2OG) and Fe(II)-dependent oxygenase superfamily protein (protein, UniProt Q9FLV0 1-341, looked up)
Protein DOWNY MILDEW RESISTANCE 6: MAAKLISTGFRHTTLPENYVRPISDRPRLSEVSQLEDFPLIDLSSTDRSFLIQQIHQACARFGFFQVINHGVNKQIIDEMVSVAREFFSMSMEEKMKLYSDDPTKTTRLSTSFNVKKEEVNNWRDYLRLHCYPIHKYVNEWPSNPPSFKEIVSKYSREVREVGFKIEELISESLGLEKDYMKKVLGEQGQHMAVNYYPPCPEPELTYGLPAHTDPNALTILLQDTTVCGLQILIDGQWFAVNPHPDAFVINIGDQLQALSNGVYKSVWHRAVTNTENPRLSVASFLCPADCAVMSPAKPLWEAEDDETKPVYKDFTYAEYYKKFWSRNLDQEHCLENFLNN
B5: GPX8, glutathione peroxidase 8 (protein, UniProt Q8LBU2 1-167, looked up)
Probable glutathione peroxidase 8: MATKEPESVYELSIEDAKGNNLALSQYKDKVLLIVNVASKCGMTNSNYTELNELYNRYKDKGLEILAFPCNQFGDEEPGTNDQITDFVCTRFKSEFPIFNKIEVNGENASPLYKFLKKGKWGIFGDDIQWNFAKFLVDKNGQAVQRYYPTTSPLTLEHDIKNLLNIS
B6: MEK1 (protein, UniProt Q94A06 1-354, looked up)
Mitogen-activated protein kinase kinase 1: MNRGSLCPNPICLPPLEQSISKFLTQSGTFKDGDLRVNKDGIQTVSLSEPGAPPPIEPLDNQLSLADLEVIKVIGKGSSGNVQLVKHKLTQQFFALKVIQLNTEESTCRAISQELRINLSSQCPYLVSCYQSFYHNGLVSIILEFMDGGSLADLLKKVGKVPENMLSAICKRVLRGLCYIHHERRIIHRDLKPSNLLINHRGEVKITDFGVSKILTSTSSLANSFVGTYPYMSPERISGSLYSNKSDIWSLGLVLLECATGKFPYTPPEHKKGWSSVYELVDAIVENPPPCAPSNLFSPEFCSFISQCVQKDPRDRKSAKELLEHKFVKMFEDSDTNLSAYFTDAGSLIPPLAN
B7: ATCHR12, Homeotic gene regulator (protein, UniProt F4J9M5 1-1102, looked up)
Probable ATP-dependent DNA helicase CHR12: MVAQQLQERCGGTSQEDPVETTKSLICALNYISRDLPLPPHLFTAVSSIYHGASSSSLSDSDVSPPLPTSPPANKAPYGADLMGEFEDALLKQRPDCESGSRLIQLLDNRNKSHIQRRLSELEELPSTRGEDLQAKCLLELYGLKLRELQGKVRTAVSSEFWLRLNCADVSSQVFDWGMMRLPRPFYGVGDPFAMEADDQFRKKRDAERLSRLEEEEKNLIETAKRKFFAEVLNAVREFQLQIQATQKRRRQRNDGVQAWHGRQRQRATRAEKLRLMALKSDDQEAYMKLVKESKNERLTTLLEETNKLLANLGAAVQRQKDAKLPEGIDLLKDSESDLSELDAPRSEPLQDLLPDQDIDITESDNNDDSNDLLEGQRQYNSAIHSIQEKVTEQPSLLEGGELRSYQLEGLQWMVSLFNNNLNGILADEMGLGKTIQTISLIAYLLENKGVPGPYLIVAPKAVLPNWVNEFATWVPSIAAFLYDGRLEERKAIREKIAGEGKFNVLITHYDLIMRDKAFLKKIEWYYMIVDEGHRLKNHESALAKTLLTGYRIKRRLLLTGTPIQNSLQELWSLLNFLLPHIFNSVQNFEEWFNAPFADRGNVSLTDEEELLIIHRLHHVIRPFILRRKKDEVEKFLPGKTQVILKCDMSAWQKVYYKQVTDMGRVGLQTGSGKSKSLQNLTMQLRKCCNHPYLFVGGDYNMWKKPEIVRASGKFELLDRLLPKLRKAGHRILLFSQMTRLIDVLEIYLTLNDYKYLRLDGTTKTDQRGLLLKQFNEPDSPYFMFLLSTRAGGLGLNLQTADTVIIFDSDWNPQMDQQAEDRAHRIGQKKEVRVFVLVSVGSVEEVILERAKQKMGIDAKVIQAGLFNTTSTAQDRREMLEEIMRKGTSSLGTDVPSEREINRLAARSEDEFWMFERMDEERRRKENYRARLMQEQEVPEWAYTTQTQEEKLNNGKFHFGSVTGKRKRKEIVYSDTLSELQWLKAVESGEDLSKLSMRYNRREENASNTKTSTSKKVIESIQTVSDGTSEEDEEEQEEERAKEMSGKQRVDKSEEEEEEGEEENDGKAIFKWNTHKKKRSRYSFTCSSSDSRAQSSNGSRRK
B8: PNG1, peptide-N-glycanase 1 (protein, UniProt Q9FGY9 1-721, looked up)
Peptide-N(4)-(N-acetyl-beta-glucosaminyl)asparagine amidase: MVARKFVVRHEDSSFDVDYNTEDGLEVLRFLIFSLTLVPPEEQKIVAEDDNRLVSDESDLASLSERLRLVSVGEDSVENSDAEMLKSDEELARMLQAEEDAIMFQQFVAARDNGEFEGRIRPYVSQVLMYEDPVRQDAARKTVPKDELEEKALVSLAKEGNFEPSKEERDYAFLLQLLFWFKKSFRWVNEPPCDFCGNKTIGQGMGNPLTSELAYGANRVEIYRCTMCPTTTRFPRYNDPLKLVETKKGRCGEWANCFTLYCRTFGYDSRLIMDFTDHVWTECYSHSLKRWIHLDPCEGVYDKPMLYEKGWNKKLNYVIAISKDGVCDVTKRYTKKWHEVLSRRTLTTESSLQDGLRTLTRERRRSLMFESLSKLELRDRNEQEELERNLHSADNASVSLPGRQSGDREWRIMRSEFGSDENSSVSSSSCPVRKCVDDHVTNIYDSFLPILTQFVEDGLPVARTNEVLKMIKQVLVDLKNAPYKTRKARLTLDSDNSSSFPEQFLPALGDLLLALSLKSERDTNGKSVTISVDGKLTKTAIALPVALDALRELVADLSKYQNLNKDSLSFPLVKQNRVCSGSVLASGEELPSGIATAAFDGIQESKWEEPNGAKGCWIVYKTLYNQMHQLIAYELMSANDAPERDPKDWILEGSNDGGSTWCVLDKQTSQVFEERFQRKSYKITTPGFQANLFRFRFLSVRDVNSTSRLQLGSIDLYRSHQ
B9: AtHSBP, HSBP, heat shock factor binding protein (protein, UniProt Q8GW48 1-86, looked up)
Heat shock factor-binding protein: MDGHDSEDTKQSTADMTAFVQNLLQQMQTRFQTMSDSIITKIDDMGGRINELEQSINDLRAEMGVEGTPPPASKSGDEPKTPASSS
B10: UBC36, ubiquitin-conjugating enzyme 36 (protein, UniProt Q9FZ48 1-153, looked up)
Ubiquitin-conjugating enzyme E2 36: MANSNLPRRIIKETQRLLSEPAPGISASPSEENMRYFNVMILGPTQSPYEGGVFKLELFLPEEYPMAAPKVRFLTKIYHPNIDKLGRICLDILKDKWSPALQIRTVLLSIQALLSAPNPDDPLSENIAKHWKSNEAEAVETAKEWTRLYASGA
B11: ELI3-2, elicitor-activated gene 3-2 (protein, UniProt Q02972 1-359, looked up)
Cinnamyl alcohol dehydrogenase 8: MGKVLQKEAFGLAAKDNSGVLSPFSFTRRETGEKDVRFKVLFCGICHSDLHMVKNEWGMSTYPLVPGHEIVGVVTEVGAKVTKFKTGEKVGVGCLVSSCGSCDSCTEGMENYCPKSIQTYGFPYYDNTITYGGYSDHMVCEEGFVIRIPDNLPLDAAAPLLCAGITVYSPMKYHGLDKPGMHIGVVGLGGLGHVGVKFAKAMGTKVTVISTSEKKRDEAINRLGADAFLVSRDPKQIKDAMGTMDGIIDTVSATHSLLPLLGLLKHKGKLVMVGAPEKPLELPVMPLIFERKMVMGSMIGGIKETQEMIDMAGKHNITADIELISADYVNTAMERLEKADVRYRFVIDVANTLKPNPNL
B12: ALDH7B4, aldehyde dehydrogenase 7B4 (protein, UniProt Q9SYG7 1-508, looked up)
Aldehyde dehydrogenase family 7 member B4: MGSANNEYEFLSEIGLTSHNLGSYVAGKWQANGPLVSTLNPANNQPIAQVVEASLEDYEQGLKACEEAAKIWMQVTAPKRGDIVRQIGDALRSKLDYLGRLLSLEMGKILAEGIGEVQEVIDMCDFAVGLSRQLNGSVIPSERPNHMMLEMWNPLGIVGVITAFNFPCAVLGWNACIALVCGNCVVWKGAPTTPLITIAMTKLVAEVLEKNNLPGAIFTAMCGGAEIGEAIAKDTRIPLVSFTGSSRVGSMVQQTVNARSGKTLLELSGNNAIIVMDDADIQLAARSVLFAAVGTAGQRCTTCRRLLLHESVYDKVLEQLLTSYKQVKIGNPLEKGTLLGPLHTPESKKNFEKGIEVIKSQGGKILTGGKAVEGEGNFVEPTIIEISADAAVVKEELFAPVLYVLKFKSFGEAVAINNSVPQGLSSSIFTRNPENIFRWIGPLGSDCGIVNVNIPTNGAEIGGAFGGEKATGGGREAGSDSWKQYMRRSTCTINYGNELPLAQGINFG

The values that follow come from patent US20230227838A1, “ENHANCED CELL SURVIVAL AGAINST BIOTIC AND ABIOTIC STRESSES THROUGH SALICYLICK ACID-INDUCED NPR1 CONDENSATES” (priority 2020, published 2023).

The target of the experiment is sim3-GFP (Arabidopsis thaliana) (UniProt P93002). The experiment is described as follows: sim3-GFP IP, LC-MS/MS.
Chain of sim3-GFP (Arabidopsis thaliana) (P93002 other isoform, or with tags, fused parts or gaps): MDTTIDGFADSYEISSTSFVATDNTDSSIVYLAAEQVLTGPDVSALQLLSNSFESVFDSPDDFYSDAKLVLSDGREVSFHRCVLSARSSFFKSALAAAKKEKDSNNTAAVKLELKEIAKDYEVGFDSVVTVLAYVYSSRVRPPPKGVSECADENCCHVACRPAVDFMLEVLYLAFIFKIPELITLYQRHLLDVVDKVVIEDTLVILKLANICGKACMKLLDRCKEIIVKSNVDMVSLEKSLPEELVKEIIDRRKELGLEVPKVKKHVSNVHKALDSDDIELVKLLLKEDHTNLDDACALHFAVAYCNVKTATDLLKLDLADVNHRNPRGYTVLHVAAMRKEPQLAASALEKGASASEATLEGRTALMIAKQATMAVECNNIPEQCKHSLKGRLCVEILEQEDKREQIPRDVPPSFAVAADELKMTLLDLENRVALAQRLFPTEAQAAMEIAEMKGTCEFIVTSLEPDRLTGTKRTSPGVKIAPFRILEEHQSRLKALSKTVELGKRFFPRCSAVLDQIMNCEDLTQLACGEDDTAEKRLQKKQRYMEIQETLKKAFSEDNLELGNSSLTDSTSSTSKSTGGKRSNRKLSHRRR
As for B1, the Normalized Fold Change: SA vs Mock came to 2.07 fold.
With B2, the Normalized Fold Change: SA vs Mock came to 8.08 fold.
For B3, the Normalized Fold Change: SA vs Mock worked out at 2.62 fold.
Molecule B4 returned a Normalized Fold Change: SA vs Mock of 15.6 fold.
B5 gave a Normalized Fold Change: SA vs Mock of 19.6 fold.
The figure for B6 is 4.03 fold; for B7 it is 9.34 fold; for B8 it is 3.13 fold.
The molecule B9 registered a Normalized Fold Change: SA vs Mock of 6.22 fold.
The molecule B10 displayed a Normalized Fold Change: SA vs Mock of 3.95 fold.
Turning to B11, the Normalized Fold Change: SA vs Mock was determined as 57 fold.
Consider B12, for which the Normalized Fold Change: SA vs Mock came to 2.01 fold.
